The target of this assay is GI (K607T)-mCherry-CAAX (Arabidopsis thaliana) (UniProt Q9SQI2). Briefly: cell-based or functional assay.
Chain of UniProt Q9SQI2 (Q9SQI2 other isoform, or with tags, fused parts or gaps K607T K607T): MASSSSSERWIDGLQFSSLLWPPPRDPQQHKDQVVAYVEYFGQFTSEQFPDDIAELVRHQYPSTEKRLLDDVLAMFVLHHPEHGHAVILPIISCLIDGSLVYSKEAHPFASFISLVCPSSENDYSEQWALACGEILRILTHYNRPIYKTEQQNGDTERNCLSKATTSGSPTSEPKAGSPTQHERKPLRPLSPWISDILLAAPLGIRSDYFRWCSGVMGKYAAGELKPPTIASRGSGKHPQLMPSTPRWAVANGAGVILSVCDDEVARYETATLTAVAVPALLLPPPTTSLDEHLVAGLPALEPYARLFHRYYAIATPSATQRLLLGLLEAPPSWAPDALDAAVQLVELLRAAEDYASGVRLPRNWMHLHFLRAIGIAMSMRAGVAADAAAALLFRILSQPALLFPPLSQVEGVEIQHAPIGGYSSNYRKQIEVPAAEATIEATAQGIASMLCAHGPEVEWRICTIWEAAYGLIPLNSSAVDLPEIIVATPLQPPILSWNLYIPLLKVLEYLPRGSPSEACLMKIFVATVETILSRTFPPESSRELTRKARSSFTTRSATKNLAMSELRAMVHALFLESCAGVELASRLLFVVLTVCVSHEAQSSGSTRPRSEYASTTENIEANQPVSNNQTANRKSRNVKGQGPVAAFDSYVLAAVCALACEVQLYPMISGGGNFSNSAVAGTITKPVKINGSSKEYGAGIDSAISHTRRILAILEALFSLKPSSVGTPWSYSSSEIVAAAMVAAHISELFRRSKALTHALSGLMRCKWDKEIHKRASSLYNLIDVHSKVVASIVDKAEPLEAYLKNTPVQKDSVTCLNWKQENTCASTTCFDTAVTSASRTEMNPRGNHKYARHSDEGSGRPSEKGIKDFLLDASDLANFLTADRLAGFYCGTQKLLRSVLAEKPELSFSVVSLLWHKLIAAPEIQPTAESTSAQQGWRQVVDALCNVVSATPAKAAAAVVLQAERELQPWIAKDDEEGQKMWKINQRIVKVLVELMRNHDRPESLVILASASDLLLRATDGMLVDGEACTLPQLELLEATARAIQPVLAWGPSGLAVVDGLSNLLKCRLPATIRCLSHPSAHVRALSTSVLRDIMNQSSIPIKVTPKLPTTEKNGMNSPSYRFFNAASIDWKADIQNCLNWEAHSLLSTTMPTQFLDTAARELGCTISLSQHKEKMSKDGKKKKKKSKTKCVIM

As to “NES-FKF1(K15T)-YFP-linker-Rac1ca (FKF1-Rac) G128D (from UniProt P63000 1-188)”, the percentage of cells with lamellipodia, increase upon illumination is 87%.

Substance “NES-FKF1(K15T)-YFP-linker-Rac1ca (FKF1-Rac) WT (from UniProt P63000 1-188)” yielded a percentage of cells with lamellipodia, increase upon illumination of 46%.

For the origin of these results see US20120237966A1.
